Consider 3 molecules from US8187596 (SCHERING, dated 2012).

To fix the notation:
T1: murine IL-1R1-Fc fusion protein (R&D Systems) (murine, UniProt P13504 20-338, limits assumed)
T1 construct: Bought reagent (R&D Systems), coated on the plate at 3 ug/ml; not shown: Fc part of the bought fusion protein
T1 sequence (looked up): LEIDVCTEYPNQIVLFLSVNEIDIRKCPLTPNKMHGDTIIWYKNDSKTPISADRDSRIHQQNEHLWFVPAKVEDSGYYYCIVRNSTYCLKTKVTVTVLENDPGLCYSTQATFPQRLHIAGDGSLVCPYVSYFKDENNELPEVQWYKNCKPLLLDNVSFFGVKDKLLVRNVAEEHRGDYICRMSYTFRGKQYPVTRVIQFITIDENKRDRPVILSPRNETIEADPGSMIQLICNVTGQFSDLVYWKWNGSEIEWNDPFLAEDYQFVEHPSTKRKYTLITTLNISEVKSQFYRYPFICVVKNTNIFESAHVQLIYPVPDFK

T2: complex of plate-bound murine IL-1R1-Fc and murine IL-1β (murine, UniProt P13504 20-338; P10749 118-269, limits assumed)
T2 construct: Formed in the ELISA well from coated IL-1R1-Fc and titrated IL-1β; It is the partner that captures his6-IL-1RAcP; also called IL-1/IL-1R1 complex; not shown: Fc part of the bought fusion protein
T2 sequence (looked up) 1: T1 sequence (looked up)
T2 sequence (looked up) 2: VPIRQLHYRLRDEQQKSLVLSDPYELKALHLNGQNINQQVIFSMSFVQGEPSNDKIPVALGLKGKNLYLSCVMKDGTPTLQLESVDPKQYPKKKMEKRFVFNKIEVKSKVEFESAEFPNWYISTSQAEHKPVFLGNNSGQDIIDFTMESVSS

B1: murine IL-1β (ligand, UniProt P10749 118-269, looked up)
chain: T2 sequence (looked up) 2
notes: also called mouse IL-1β
B2: murine IL-33 (ligand, UniProt Q8BVZ5 109-266, looked up)
chain: SIQGTSLLTQSPASLSTYNDQSVSFVLENGCYVINVDDSGKDQEQDQVLLRYYESPCPASQSGDGVDGKKLMVNMSPIKDTDIWLHANDKDYSVELQRGDVSPPEQAFFVLHKKSSDFVSFECKNLPGTYIGVKDNQLALVEEKDESCNNIMFKLSKI
notes: also called mouse IL-33
B3: recombinant his6-tagged murine IL-1RAcP (receptor, UniProt Q61730 21-367, looked up)
chain: SERCDDWGLDTMRQIQVFEDEPARIKCPLFEHFLKYNYSTAHSSGLTLIWYWTRQDRDLEEPINFRLPENRISKEKDVLWFRPTLLNDTGNYTCMLRNTTYCSKVAFPLEVVQKDSCFNSAMRFPVHKMYIEHGIHKITCPNVDGYFPSSVKPSVTWYKGCTEIVDFHNVLPEGMNLSFFIPLVSNNGNYTCVVTYPENGRLFHLTRTVTVKVVGSPKDALPPQIYSPNDRVVYEKEPGEELVIPCKVYFSFIMDSHNEVWWTIDGKKPDDVTVDITINESVSYSSTEDETRTQILSIKKVTPEDLRRNYVCHARNTKGEAEQAAKVKQKVIPPRYTVELACGFGAT
notes: Described only as soluble, recombinant and his6-tagged; also called soluble his6-tagged murine IL-1RAcP; his6-tagged IL-1RAcP; not shown: his6 tag

Assay [1] deals with T1, murine IL-1R1-Fc fusion protein (R&D …). Description: receptor-ligand complex ELISA: IL-1β titrated onto coated IL-1R1-Fc with his6-IL-1RAcP present; the readout is captured his6-IL-1RAcP (ternary complex). The protocol:
(§1) Murine IL-1β or IL-33 was titrated into plates containing soluble his6-tagged murine IL-1RAcP and plate-bound ST2-Fc (FIG. 8A) or IL-1R1-Fc (FIG. 8B). Peroxidase-conjugated anti-his6 was used as a detection antibody. Data is representative of 2 experiments. Data represent the mean+/-SEM of duplicate wells.
(§2) Receptor-ligand complex ELISA: 3 µg/mlmurine ST2-Fc or IL-1R1-Fc fusion proteins (R&D Systems) in PBS were coated overnight onto MaxiSorp plates (Nunc). After washing, plates were incubated with 3 µg/ml recombinant his6-tagged murine IL-1RAcP and increasing concentrations of murine IL-33 or IL-1β in PBS/1% bovine serum albumin/ 0.05% Tween-20® polyoxyethylene sorbitan monolaurate for 1.5 hours. Plates were washed and incubated with anti-his6-peroxidase (Roche Diagnostics) for 1 hour, washed again, developed with TMB Peroxidase substrate (KPL), stopped with […], and read on a plate reader at 450-570 nm.

The target of assay [2] is B3. As to the kind of experiment: not described (data not shown).
Assay [3] addresses T2, complex of plate-bound murine IL-1R1-Fc …. As to the kind of experiment: receptor-ligand complex ELISA: IL-1R1-Fc coated, his6-IL-1RAcP 3 ug/ml in solution, IL-1β titrated, anti-his6-peroxidase detection. The protocol: as §1, §2

As for B1, the binding result in assay [1] was “binds”.
Turning to B2, in assay [2], the binding result is “no binding”.
As to B3, in assay [3], the binding result is reported as “binds”.
